In the experiment the target is T1, VASH2_(1–355)(C158A)/SVBP_(1–66) (Mus musculus, UniProt Q8C5G2 1-355; Q99LQ4 1-66, C158A).
T1 construct: SVBP, Mus musculus, residues 1-66; also called VASH2(C158A)/SVBP; source: Sf9, co-expressed (baculovirus), purified (Ni-NTA, heparin, SEC); not shown: His-tag, N-terminal, cleaved
Description: crystal structure; tail peptide (1 mM) co-crystallized with VASH2 1–355(C158A)/SVBP 1–66 (5 mg/ml), 2.5 Å; 0.1 M HEPES pH 7.0, 1 M (NH4)2SO4, 1.105 M KCl, 18 °C. The settings on record: both partners purified.

T1 sequence (Q8C5G2 whole entry C158A, chain 1 of 2, the tested form may be a part): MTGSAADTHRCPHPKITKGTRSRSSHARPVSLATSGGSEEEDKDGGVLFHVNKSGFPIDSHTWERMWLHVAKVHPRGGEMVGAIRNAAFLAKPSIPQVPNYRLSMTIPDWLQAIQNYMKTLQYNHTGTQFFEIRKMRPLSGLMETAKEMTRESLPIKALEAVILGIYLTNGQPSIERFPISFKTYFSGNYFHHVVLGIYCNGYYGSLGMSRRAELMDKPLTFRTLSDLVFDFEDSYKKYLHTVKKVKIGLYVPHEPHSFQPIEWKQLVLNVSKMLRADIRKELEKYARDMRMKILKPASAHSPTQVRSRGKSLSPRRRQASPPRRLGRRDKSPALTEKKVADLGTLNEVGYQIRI
T1 sequence (Q99LQ4 whole entry, chain 2 of 2, the tested form may be a part): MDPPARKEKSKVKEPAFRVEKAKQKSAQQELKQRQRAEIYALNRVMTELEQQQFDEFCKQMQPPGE

B1: α-tubulin C-terminal tail peptide (VDSVEGEGEEEGEEY) (peptide)
peptide: VDSVEGEGEEEGEEY
notes: C-terminal tail of α-tubulin; Only the last five residues (EGEEY) were built in the crystal structure; also called tubulin tail; full-length tail; source: synthetic peptide (Biosynthesis)
Regarding B1, the binding result is recorded as “binds”.

These data come from publication PMC6642083, “Structural basis of tubulin detyrosination by VASH2/SVBP heterodimer” (Nature Communications, 2019).
